{"source": "paper PMC5071372", "about": "“Combining biophysical methods to analyze the disulfide bond in SH2 domain of C-terminal Src kinase” (Biophysics Reports, 2016)", "molecules": {"B1": {"name": "oxidized L-SH2: human Csk SH2 domain with SH3–SH2 linker, residues A73–A178, disulfide oxidized (PDB 3EAC) (protein)", "chain": "AGTKLSLMPWFHGKITREQAERLLYPPETGLFLVRESTNYPGDYTLCVSCDGKVEHYRIMYHASKLSIDEEVYFENLMQLVEHYTSDADGLCTRLIKPKVMEGTVA", "modifications": "disulfide bond C122–C164; left off: intein, end not stated, cleaved"}, "B2": {"name": "reduced L-SH2: human Csk SH2 domain with SH3–SH2 linker, residues A73–A178, reduced form (protein)", "chain": "B1 chain", "modifications": "left off: intein, end not stated, cleaved", "notes": "human Csk SH2 domain with SH3–SH2 linker, residues A73–A178, reduced form"}, "B3": {"name": "full-length Csk: C-terminal Src kinase, full length (protein, UniProt P41240 1-450, looked up)", "chain": "MSAIQAAWPSGTECIAKYNFHGTAEQDLPFCKGDVLTIVAVTKDPNWYKAKNKVGREGIIPANYVQKREGVKAGTKLSLMPWFHGKITREQAERLLYPPETGLFLVRESTNYPGDYTLCVSCDGKVEHYRIMYHASKLSIDEEVYFENLMQLVEHYTSDADGLCTRLIKPKVMEGTVAAQDEFYRSGWALNMKELKLLQTIGKGEFGDVMLGDYRGNKVAVKCIKNDATAQAFLAEASVMTQLRHSNLVQLLGVIVEEKGGLYIVTEYMAKGSLVDYLRSRGRSVLGGDCLLKFSLDVCEAMEYLEGNNFVHRDLAARNVLVSEDNVAKVSDFGLTKEASSTQDTGKLPVKWTAPEALREKKFSTKSDVWSFGILLWEIYSFGRVPYPRIPLKDVVPRVEKGYKMDAPDGCPPAVYEVMKNCWHLDAAMRPSFLQLREQLEHIKTHELHL", "modifications": "full-length"}}, "key": {"[1]": {"assay": "Guanidine hydrochloride-induced unfolding monitored by tryptophan fluorescence", "assay_type": "physicochemical", "conditions": "guanidine hydrochloride 0 to 6 mol/L, two-state linear extrapolation to H2O", "experimental": "Intrinsic fluorescence of oxidized and reduced form of L-SH2 domain, as well as that of the cysteine mutants C122S and C164S L-SH2, was measured to examine the role of the disulfide bond in the stability of the Csk SH2 domain. […] The thermodynamic stability of these oxidized and reduced L-SH2 domains, as well as that of the mutants at equilibrium, were characterized by determining the free energy of unfolding by using guanidine hydrochloride-induced unfolding experiments monitored by tryptophan fluorescence (Fig. 4A). The curves were fitted using the linear extrapolation model to obtain the ∆G for unfolding in H2O (Santoro and Bolen [1988]). […]\nFluorescence titrations were performed at 25 °C in 3 mL of 50 mmol/L Tris-HCl (pH 7.5) using excitation and emission wavelengths of 288 nm and 320 nm, respectively. […] The concentrations of guanidine hydrochloride of the solutions were determined by measuring the index of refraction and by using the following equation: d/d 0 = 1 + 0.2710 W + 0.0330 W ^2 (Tanford et al. [1966]), where W is the weight fraction of guanidine hydrochloride in the solution, d is the density of the solution, and d 0 is the density of water. […] The signals were normalized to the fraction of unfolded species using the standard relation F unf = (I − I N)/(I U − I N), where N and U stand for the fluorescence intensity of the native and fully unfolded species, respectively. […]"}, "[2]": {"test_system": "Csk L-SH2 disulfide bond", "assay": "NMR-monitored reduction of oxidized SH2 by DTT", "assay_type": "physicochemical, human", "conditions": "10 mmol/L DTT, 50 mmol/L Tris-HCl pH 7.5, 1.0 mmol/L EDTA, 0.01% NaN3, 5% D2O, 298 K, NMR peak intensity", "source_text": "During purification of the Csk L-SH2 domain, 50 mmol/L DTT was used to elute the protein from the chitin resin. The L-SH2 was used in reduced form, given that DTT was used to cleave L-SH2 from its intein fusion partner. Following elution of the protein from the ion exchange column, the L-SH2 became a mixture of the reduced and oxidized forms. The fully oxidized form was obtained by exposing the protein to air for several days.\nFig. 3 Comparison of the oxidized and reduced form of SH2. A Comparison of ^1H–^15N HSQC of oxidized (red) and reduced (green) SH2. B Combined chemical shift change of oxidized and reduced form SH2. The difference was calculated as ∆δ tot = [(∆δ H)^2 + (0.154∆δ N)^2]^1/2. […]\nAll NMR experiments were performed at 298 K on 800 MHz spectrometers equipped with triple-resonance cryoprobes. […] The combined change in chemical shift of a particular residue upon ligation with the kinase domain was calculated as ∆δ = [(∆δ H)^2 + (0.154∆δ N)^2]^1/2, where ∆δ H and ∆δ N correspond to the changes in amide proton and nitrogen chemical shift, respectively. The weight factor for ^1H and ^15N is determined from the ratio of the average variances of the amide nitrogen and proton chemical shifts observed for the 20 common amino acid residues in proteins deposited in the BioMagResBank (Mulder et al. [1999]). […]"}, "[3]": {"test_system": "full-length Csk", "conditions": "ref Mills et al. [2007], cited from earlier work", "source_text": "Disulfide bonds are mostly found in secretory proteins and in extracellular domains of membrane proteins. Cytosolic proteins, which contain cysteine residues that are in close proximity to each other, may function as oxidation sensors; when the reductive potential of the cell fails, they oxidize and trigger cellular response mechanisms (Sevier and Kaiser [2002]). Mills et al. studied the unique disulfide bond of Csk SH2 that is absent in other known SH2 domains."}}, "note": "Entries after “also recorded” stand apart in the source; their conditions may differ.", "data": [{"molecule": "B1", "values": [{"measurement": "free energy of unfolding ΔG U,W^0", "setting": "[1]", "result": "10.1 ± 0.382", "unit": "kcal/mol"}, {"measurement": "t1/2 of the reduction reaction", "setting": "[2]", "result": "2.6 ± 0.1", "unit": "h"}]}, {"molecule": "B2", "values": [{"measurement": "free energy of unfolding ΔG U,W^0", "setting": "[1]", "result": "6.57 ± 0.17", "unit": "kcal/mol"}]}, {"molecule": "B3", "values": [{"measurement": "kinase activity upon formation of the disulfide bond in the SH2 domain", "setting": "[3]; full-length Csk", "result": "decreases by an order of magnitude; also recorded: reduced by an order of magnitude"}, {"measurement": "kinase activity on prevention of the reduction of disulfide bond", "setting": "[3]; restored upon re-introduction of reducing agent", "result": "tenfold reduction in kinase activity"}]}]}
